Measurements published in the Human Domainome abundance scans (Beltran et al. 2025).
± gives the uncertainty stated by the source.

B1: Intersectin-1, residues 909 to 971; numbered along this chain, Q15811 (parent)
chain: QGEKVEGLQAQALYPWRAKKDNHLNFNKNDVITVLEQQDMWWFGEVQGQKGWFPKSYVKLISG

Variants of: B1
Assay: abundance fitness (aPCA) (normalised: wild type 0, dead -1); higher = more abundant; growth selection in yeast, the domain comes from the species named
Conditions: Homo sapiens

Row | Variant | abundance fitness
1 | QCEKVEGLQAQALYPWRAKKDNHLNFNKNDVITVLEQQDMWWFGEVQGQKGWFPKSYVKLISG | -0.286 ± 0.16
2 | QGEKVEGLQAQALYPWRAKKNNHLNFNKNDVITVLEQQDMWWFGEVQGQKGWFPKSYVKLISG | -0.265 ± 0.15
3 | QGEKVEGLQAQALYPWRAKKCNHLNFNKNDVITVLEQQDMWWFGEVQGQKGWFPKSYVKLISG | -0.167 ± 0.045
4 | QGEKVEGLQAQALYPWRAKKDNHLNFNNNDVITVLEQQDMWWFGEVQGQKGWFPKSYVKLISG | -0.563 ± 0.27
5 | QGEKVEGLQAWALYPWRAKKDNHLNFNKNDVITVLEQQDMWWFGEVQGQKGWFPKSYVKLISG | -0.098 ± 0.14
6 | QGEKVEGLQAQALYPWRAKKDNHLNFNKNDVITVLEGQDMWWFGEVQGQKGWFPKSYVKLISG | -0.085 ± 0.1
7 | QGEKVEGLQAQALVPWRAKKDNHLNFNKNDVITVLEQQDMWWFGEVQGQKGWFPKSYVKLISG | 0.011 ± 0.086
8 | QGEKVEGLQAQALYPWRAKKDNHLNFNKNGVITVLEQQDMWWFGEVQGQKGWFPKSYVKLISG | -0.75 ± 0.055
9 | QGEKVEGLQAQALYPWRAKKDNHLNFNKNWVITVLEQQDMWWFGEVQGQKGWFPKSYVKLISG | -0.331 ± 0.054
10 | RGEKVEGLQAQALYPWRAKKDNHLNFNKNDVITVLEQQDMWWFGEVQGQKGWFPKSYVKLISG | -0.299 ± 0.13
11 | WGEKVEGLQAQALYPWRAKKDNHLNFNKNDVITVLEQQDMWWFGEVQGQKGWFPKSYVKLISG | -0.34 ± 0.16
12 | QGEKVEGLQAQALYPWRAKKDNHLNFNKNDVITVLEQQDVWWFGEVQGQKGWFPKSYVKLISG | -0.164 ± 0.1
13 | QGEKIEGLQAQALYPWRAKKDNHLNFNKNDVITVLEQQDMWWFGEVQGQKGWFPKSYVKLISG | -0.151 ± 0.1
14 | QGEKVEGLQAQALYPWRAKKDNHLNFNKNDVITVLEQQDMWWFGEVQGQKGWFPKSYVCLISG | -0.192 ± 0.2
15 | QGEKVEGLQAQALYPWRAKKDNGLNFNKNDVITVLEQQDMWWFGEVQGQKGWFPKSYVKLISG | -0.164 ± 0.11
16 | QGEKVEGLQAQALYPWRAKKDNILNFNKNDVITVLEQQDMWWFGEVQGQKGWFPKSYVKLISG | -0.551 ± 0.35
17 | QGEEVEGLQAQALYPWRAKKDNHLNFNKNDVITVLEQQDMWWFGEVQGQKGWFPKSYVKLISG | -0.11 ± 0.13
18 | QGEKVVGLQAQALYPWRAKKDNHLNFNKNDVITVLEQQDMWWFGEVQGQKGWFPKSYVKLISG | -0.122 ± 0.17
19 | QGEKVEGLQAQALYPWRAKKDNHLNFNKNDVITCLEQQDMWWFGEVQGQKGWFPKSYVKLISG | -0.427 ± 0.28
20 | QGEKVEGLQAQALYPWRAKKDNHLNFNKNDVITVLEQQDMWWFGEVQGSKGWFPKSYVKLISG | -0.232 ± 0.14
21 | QGEKVEGLQAQALYPWRAKKDNHLNFNKNDVITVLEQQDMWWFGEVQVQKGWFPKSYVKLISG | -0.584 ± 0.12
22 | QGEKVEGLQAQALYPWRAKKDNHLNFNKNDVITVLGQQDMWWFGEVQGQKGWFPKSYVKLISG | -0.076 ± 0.093

Row | Variant | abundance fitness
23 | QGEKVEGLQAQALYPWRAKKDNHLNFNKNDVIHVLEQQDMWWFGEVQGQKGWFPKSYVKLISG | -0.201 ± 0.39
24 | QGEKVEGLQAQALYPWRAKKDNHLNFNKNDVIEVLEQQDMWWFGEVQGQKGWFPKSYVKLISG | -0.089 ± 0.078
25 | QGEKVEGLQCQALYPWRAKKDNHLNFNKNDVITVLEQQDMWWFGEVQGQKGWFPKSYVKLISG | -0.174 ± 0.36
26 | QGEKVEGLSAQALYPWRAKKDNHLNFNKNDVITVLEQQDMWWFGEVQGQKGWFPKSYVKLISG | -0.083 ± 0.098
27 | QGEKVEGLQAQALYPWWAKKDNHLNFNKNDVITVLEQQDMWWFGEVQGQKGWFPKSYVKLISG | -0.24 ± 0.25
28 | QGEKVEGLQAQALYPWLAKKDNHLNFNKNDVITVLEQQDMWWFGEVQGQKGWFPKSYVKLISG | -0.021 ± 0.11
29 | QGEKVEGLQAQALYPWRAKKDNHLNFNKNDVITVLEQQDMWWFGEVYGQKGWFPKSYVKLISG | -0.113 ± 0.31
30 | QGEKVEGLQAQALYPWRAKKDNHLNFNKNDVITVLEQQDMWWFGEVRGQKGWFPKSYVKLISG | -0.151 ± 0.088
31 | QGEKVEGLQAQALYPWRAKKDNHLNFNKNDVITVLEQQDMWWFGEVSGQKGWFPKSYVKLISG | -0.167 ± 0.1
32 | QGEKVEGLQAQALYPWRAKKDNHLNFNKNDVITVLEQQDMWWIGEVQGQKGWFPKSYVKLISG | -0.663 ± 0.48
33 | QGEKVEGLQAQALYPWRAKKDNHLNFNKDDVITVLEQQDMWWFGEVQGQKGWFPKSYVKLISG | -0.081 ± 0.13
34 | QGEKVEGLQAQALYPWRAKKDNHLNFNKNDVITVLEQQDMWYFGEVQGQKGWFPKSYVKLISG | 0.031 ± 0.15
35 | QGEKVEGLQAQALYPWRAKKDNHLNFNKNDVITVLEQQDMWWFGEVQGQKGWFQKSYVKLISG | -0.688 ± 0.3
36 | QGEKVEGLQAQALYPWRAKQDNHLNFNKNDVITVLEQQDMWWFGEVQGQKGWFPKSYVKLISG | -0.171 ± 0.066
37 | QGEKVEGLQAQALYPWRAKKDNHLNFNKNDVITVLEQQDMWWFGEVQGQKGWFPKSRVKLISG | -0.013 ± 0.08
38 | QGEKVEGLQAQALYPWRAKKDNHLNFNKNDVITVLEQQDMWWFGEVQGQKGVFPKSYVKLISG | -0.944 ± 0.25
39 | QGEKVEGLQAQALYPWRAKKDNHLNFNKNDVITVLEQQDMWWFGECQGQKGWFPKSYVKLISG | 0.012 ± 0.18
40 | QGEKVEGLQAQALYPWRAKKDNHLNFNKNDVITVLEQQDMWWFGEVQGQKGWFPQSYVKLISG | -0.005 ± 0.34
41 | QGEKVEGLQAQALYPWRAKKDNHLNFRKNDVITVLEQQDMWWFGEVQGQKGWFPKSYVKLISG | -0.016 ± 0.15
42 | QGEKVEGWQAQALYPWRAKKDNHLNFNKNDVITVLEQQDMWWFGEVQGQKGWFPKSYVKLISG | -0.152 ± 0.11
43 | QGEKVEGLQAQALYPWRAKKDNHLNFNKNDVITVLEQQDMWWFGEVQGQKGWFPKSYIKLISG | -0.451 ± 0.17
